Results as given in patent US20090130676.

System: His6-aptamers (peptide aptamers of FIGS. 4A and 4B, purified)

For Cdk2/Cyclin E kinase, the “phosphorylation of Histone H1 by Cdk2/Cyclin E kinase” value was “All tested aptamers were able to inhibit phosphorylation of Histone H1 by Cdk2/Cyclin E kinase”.
